# PMC7265326
# Target: PKD2-mNeonGreen (PKD2-mNG) in cilia (Chlamydomonas)
# Experiment: stepwise photobleaching
substance,measurement,value
PKD2-mNeonGreen (PKD2-mNG) in cilia (domain or fragment),photobleaching steps per particle,2.8 steps
same,stoichiometry N,> 3
